Entries after “also recorded” stand apart in the source; their conditions may differ.

Assay [1] concerns binding of the TS-A12/22 antibody to C5. Nature of the assay: Competitive ELISA on solid-phase C5 after pre-incubation of TS-A12/22 with peptide. More on the design: species or system human. The settings on record: 800 ng CS5 or 3.5 μg C5a fragment; highest concentrations used. How it is done: Binding of the antibody, pre-incubated in different conditions, was assessed by immuno-enzymatic assay using C5 on solid phase.
This peptide corresponds to region 727-744 of the mature protein and comprises the cleavage site of C5 convertase (indicated by the arrow) between […] according to SwissProt numbering for human C5 (SEQ ID P01031). The peptide was used in a competitive ELISA assay on the C5 protein on solid phase. Before binding to the solid phase, the TS-A12/22 antibody was pre-incubated with the PSA-18 peptide, corresponding to amino acids 727-744 of the C5 component, or with an unrelated peptide of sequence […] (SEQ ID NO:16 of sequence listing) corresponding to a fibronectin derived peptide termed CS5.
Background: In an ELISA, binding on a coated surface is turned into a signal by an enzyme label.

The next assay addresses T1, factor C5 (Homo sapiens, UniProt P01031).
T1 construct: C5 alpha and beta subunits were obtained by incubating 50 μg of C5; purchased Quidel
The assay can be described thus: Surface plasmon resonance (BIACORE 2000) on C5 immobilized on chip. The settings on record: read-out: KD calculated. It counts as binding. How it is done:
The binding affinity of the Tsa-12 antibody, purified by means of FPLC on Superdex 75 (Pharmacia), for factor C5 was measured by means of BIACORE™ 2000 (a system that generates unique data on the interactions between proteins and other molecules). The microchip (CM5, Biacore) was prepared by direct conjugation of the C5 antigen with amines (20 μg/ml in 10 mM Sodium Acetate pH 4.5). The final level of immobilisation turned out to be approximately 1000 RU (Resonance Units). Association and dissociation of antibody molecules from the bio-chip were measured using an optical detection system (Surface Plasmon Resonance). The analysis was carried out at 25° C., at a flow of 15 μl/min, using 4 different scFv concentrations in the range comprised between 100-300 nM, in PBS, 0.005% P20 (Biacore). The binding curves were interpolated 1:1 according to the model of Langmuir, using the dedicated software termed BIAevaluation (version 3.5) with correction for the mass transfer. In order to increase the affinity, the TS-A12 antibody was subjected to substitution (“shuffling”) of the VL light chains. For this purpose the phagemid DNA was cut with BssHII and SaII to excise the VL region. This region was substituted with all the repertoire of VL chains of a preimmune library (Sblattero, D., and Bradbury A., 2000, Nat. Biotechnol. 18:75) that was prepared with same enzymes. […]

Assay [2] concerns the target T2, C5 (Homo sapiens, UniProt P01031).
T2 construct: C5 alpha and beta subunits were obtained by incubating 50 μg of C5; purchased Quidel
Nature of the assay: Haemolytic assay / TCC ELISA with EAC1-3b sheep erythrocytes and C5 depleted serum. The assay is classed as biochemical. The conditions noted are these: FIG. 1B. As to the method:
(§1) Panel A) The ELISA assay measures the amount of C5a fragment released in the supernatant after enzymatic cleavage of C5, using antibodies anti-C5 as described in example 6. […] Sheep erythrocytes sensitised with antibodies and coated until the C3b (EAC1-3b) complement step were added to the mixture of TS-A12 or TS-A12/22 and C5, and the mixture was further incubated for 30 minutes at 37° C. (panel B).
Sheep erythrocytes (SBRC: Sheep red blood cells) were sensitised with sub-agglutinating amounts of rabbit IgM (EA). […]
(§2) The obtained anti-C5 scFv fragments were further characterised for their ability to inhibit the hemolytic activity of C5 or, in other words, to block conversion of the C5 component to C5a. […] At the end of this procedure, cell lysis was measured as percentage of the control of total lysis in distilled H2O (see FIG. 1, panel B). The inhibition of C5a and TCC production by the scFv TS-A12 and TS-A12/22 was measured by means of ELISA using the monoclonal antibody 17/5 as the capture antibody and antibody G25/2 as detection antibody according to what has been described in Opperman et al., 1991, Complement Inflamm. […] The presence of TCC was measured using antibody aE11 as the capture antibody and a biotinylated anti-C5 antibody (SIGMA-ALDRICH®) followed by alkaline phosphatase-conjugated streptavidin, as described by Tedesco et al. (1997, J Exp. Med. 185:1619).

Assay [3] concerns the target T2, C5. Nature of the assay: ELISA of C5a released after cleavage of C5 by C5 convertase. It counts as biochemical. The settings on record: FIG. 1A, classical pathway. How it is done:
as §1, §2

binding of the TS-A12/22 antibody to C5, sequence (P01031 678-1676 partner limits assumed, one chain of several): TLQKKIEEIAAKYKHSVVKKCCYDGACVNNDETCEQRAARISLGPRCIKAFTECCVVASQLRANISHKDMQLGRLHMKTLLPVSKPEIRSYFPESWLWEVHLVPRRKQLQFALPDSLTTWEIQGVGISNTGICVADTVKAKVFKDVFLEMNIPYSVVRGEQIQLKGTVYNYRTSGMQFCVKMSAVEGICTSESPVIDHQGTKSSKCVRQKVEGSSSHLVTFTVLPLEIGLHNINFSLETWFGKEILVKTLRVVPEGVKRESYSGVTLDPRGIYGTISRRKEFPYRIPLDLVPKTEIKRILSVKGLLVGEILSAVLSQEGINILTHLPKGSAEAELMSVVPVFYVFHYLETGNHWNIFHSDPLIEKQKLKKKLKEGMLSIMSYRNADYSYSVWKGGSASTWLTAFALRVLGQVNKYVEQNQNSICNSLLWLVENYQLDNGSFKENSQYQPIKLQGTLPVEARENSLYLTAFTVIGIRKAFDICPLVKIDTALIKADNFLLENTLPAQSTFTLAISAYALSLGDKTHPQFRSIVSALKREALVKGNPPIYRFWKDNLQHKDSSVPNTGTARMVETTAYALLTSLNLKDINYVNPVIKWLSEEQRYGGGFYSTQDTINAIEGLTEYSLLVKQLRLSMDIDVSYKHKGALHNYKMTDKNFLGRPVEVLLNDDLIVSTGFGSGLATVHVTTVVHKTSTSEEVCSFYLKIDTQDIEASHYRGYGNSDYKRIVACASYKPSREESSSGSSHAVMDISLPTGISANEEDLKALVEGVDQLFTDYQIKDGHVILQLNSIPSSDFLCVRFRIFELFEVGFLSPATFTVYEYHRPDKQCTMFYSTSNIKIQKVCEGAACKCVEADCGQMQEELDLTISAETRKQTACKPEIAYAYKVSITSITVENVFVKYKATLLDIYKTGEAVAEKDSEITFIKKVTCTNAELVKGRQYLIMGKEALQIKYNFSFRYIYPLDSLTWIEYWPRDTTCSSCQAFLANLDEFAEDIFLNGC
binding of the TS-A12/22 antibody to C5, sequence (P01031 19-673 partner limits assumed, one chain of several): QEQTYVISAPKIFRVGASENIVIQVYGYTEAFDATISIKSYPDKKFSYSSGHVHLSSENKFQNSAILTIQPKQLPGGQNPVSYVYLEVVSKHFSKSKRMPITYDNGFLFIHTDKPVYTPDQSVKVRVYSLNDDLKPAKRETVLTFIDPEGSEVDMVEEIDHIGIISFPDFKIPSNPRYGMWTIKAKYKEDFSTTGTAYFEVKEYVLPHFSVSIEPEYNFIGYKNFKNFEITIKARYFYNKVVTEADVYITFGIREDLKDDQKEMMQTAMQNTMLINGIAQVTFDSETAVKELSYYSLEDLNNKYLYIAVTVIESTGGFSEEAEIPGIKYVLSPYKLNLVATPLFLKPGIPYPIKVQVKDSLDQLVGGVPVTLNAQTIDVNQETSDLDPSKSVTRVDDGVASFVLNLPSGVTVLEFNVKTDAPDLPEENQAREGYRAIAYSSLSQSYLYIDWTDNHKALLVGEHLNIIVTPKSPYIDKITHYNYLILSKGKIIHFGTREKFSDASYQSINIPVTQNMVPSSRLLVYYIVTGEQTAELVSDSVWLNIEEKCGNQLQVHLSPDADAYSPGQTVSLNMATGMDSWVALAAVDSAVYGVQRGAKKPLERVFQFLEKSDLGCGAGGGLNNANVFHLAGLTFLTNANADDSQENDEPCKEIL
T2 sequence (P01031 678-1676 limits assumed): as the sequence (P01031 678-1676 partner limits assumed, one chain of several) above
T2 sequence (P01031 19-673 partner limits assumed): as the sequence (P01031 19-673 partner limits assumed, one chain of several) above
T1 sequence (P01031 678-1676 limits assumed): as the sequence (P01031 678-1676 partner limits assumed, one chain of several) above
T1 sequence (P01031 19-673 partner limits assumed): as the sequence (P01031 19-673 partner limits assumed, one chain of several) above

Take “GEEIQIGHIPREDVDYHLYP (PEPTIDE (1)..(20) fibronectin derived peptide; listed as Homo sapiens) [CS5, unrelated fibronectin derived peptide]”: the “inhibition of binding of TS-A12/22 to C5 (in words)” value in assay [1] is given as “ineffective; also recorded: NO inhibition”.

B1: C5A: C5a fragment; human recombinant C5a component purchased from SIGMA-ALDRICH (protein, UniProt P01031 678-751, looked up)
C5a anaphylatoxin: TLQKKIEEIAAKYKHSVVKKCCYDGACVNNDETCEQRAARISLGPRCIKAFTECCVVASQLRANISHKDMQLGR
modifications: C5a anaphylatoxin
notes: C5a fragment; human recombinant C5a component purchased from SIGMA-ALDRICH
For the molecule B1, in assay [1], the “inhibition of binding of TS-A12/22 to C5 (in words)” value is “NO inhibition”.

B2: TS-A12: human anti-C5 single chain scFv antibody clone selected from a naive phage library (protein, listed as Homo sapiens)
scFv: DIRMTQSPDSLAVSLGERATINCKSSQSVLYSSNNKNYLAWYQQKPGQPPKLLIYWASTRESGVPDRFSGSGSGTDFTLTISSLQAEDVAVYYCQQYYSTPQLTFGGRTKVDIKSGGSTITSYNVYYTKLSSSGTQVQLQQSEGGVVQPGRSLRLSCAASGFTFSSYGMNWVRQAPGKGLEWVSYISSSSSTIYYADSVKGRFTISRDNSKNTLYLQMNSLRAEDTAVYYCARGPGMDVWGQGTTVTVSS
Take B2: in the assay with factor C5, the dissociation constant Kd (as a rule, the equilibrium constant for the complex coming apart) is 200 nM. In addition, the “inhibition of formation of TCC” value with C5 [2] was “inhibit almost completely”. In the assay with C5 [3], the “inhibition of formation of C5a” value is recorded as “inhibit almost completely”.

The values above are taken from patent US8962819B2, “Anti-C5 alpha antibodies” (Adienne S.A., priority 2002, dated 2015).
